Molecular target: T1, CL-K1 (Homo sapiens, UniProt Q9BWP8)
T1 construct: For full-length protein, the cDNA was cloned into the polylinker region of expression vector pED; made in house; host or cells: Chinese hamster ovary cells
Test: Surface plasmon resonance of CL-K1 binding to glycoproteins
Conditions: glycoprotein starting concentration 200 nM
Protocol: Figure 1 Glycoprotein binding and complement activation by CL-K1. A) Immunoblot of CL-K1 binding to immobilised mammalian and yeast glycoproteins. B) Surface plasmon resonance of CL-K1 binding to glycoproteins. […] C3b and its breakdown products were detected by absorbance using an anti-human C3c antibody with alkaline phosphatase-conjugated goat anti-rabbit secondary antibody and p-nitrophenyl phosphate as the substrate. Protein concentrations were calculated based on the molecular masses of CL-K1 and MBL trimers (78 kDa in each case). CL-K1, collectin-K1; MBL, mannan-binding lectin.
CL-K1 was immobilised on the surface of a GLM sensor chip (Bio-Rad Laboratories Ltd (Hemel Hempstead, UK)) by amine coupling. Binding was measured in 10 mM Tris–HCl, pH 7.4 containing 140 mM NaCl, 2 mM CaCl2 and 0.005% Tween 20 at a flow rate of 25 μl/minute and at 25°C. The protein surface was regenerated in buffer containing 1 M NaCl and 5 mM EDTA.

T1 sequence (Q9BWP8 26-271): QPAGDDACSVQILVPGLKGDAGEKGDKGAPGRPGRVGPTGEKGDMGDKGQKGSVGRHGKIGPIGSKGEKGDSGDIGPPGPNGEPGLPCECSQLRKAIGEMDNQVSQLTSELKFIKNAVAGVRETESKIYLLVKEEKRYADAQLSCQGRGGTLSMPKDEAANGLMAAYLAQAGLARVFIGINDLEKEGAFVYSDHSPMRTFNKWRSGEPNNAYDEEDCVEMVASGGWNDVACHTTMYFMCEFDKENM

B1: milk lactoferrin: human milk lactoferrin, contains complex sugars (protein, UniProt P02788 20-710, looked up)
Lactotransferrin: GRRRSVQWCAVSQPEATKCFQWQRNMRKVRGPPVSCIKRDSPIQCIQAIAENRADAVTLDGGFIYEAGLAPYKLRPVAAEVYGTERQPRTHYYAVAVVKKGGSFQLNELQGLKSCHTGLRRTAGWNVPIGTLRPFLNWTGPPEPIEAAVARFFSASCVPGADKGQFPNLCRLCAGTGENKCAFSSQEPYFSYSGAFKCLRDGAGDVAFIRESTVFEDLSDEAERDEYELLCPDNTRKPVDKFKDCHLARVPSHAVVARSVNGKEDAIWNLLRQAQEKFGKDKSPKFQLFGSPSGQKDLLFKDSAIGFSRVPPRIDSGLYLGSGYFTAIQNLRKSEEEVAARRARVVWCAVGEQELRKCNQWSGLSEGSVTCSSASTTEDCIALVLKGEADAMSLDGGYVYTAGKCGLVPVLAENYKSQQSSDPDPNCVDRPVEGYLAVAVVRRSDTSLTWNSVKGKKSCHTAVDRTAGWNIPMGLLFNQTGSCKFDEYFSQSCAPGSDPRSNLCALCIGDEQGENKCVPNSNERYYGYTGAFRCLAENAGDVAFVKDVTVLQNTDGNNNEAWAKDLKLADFALLCLDGKRKPVTEARSCHLAMAPNHAVVSRMDKVERLKQVLLHQQAKFGRNGSDCPDKFCLFQSETKNLLFNDNTECLARLHGKTTYEKYLGPQYVAGITNLKKCSTSPLLEACEFLRK
  binding to CL-K1 by surface plasmon resonance: not

— article PMC4431178, “Molecular basis of sugar recognition by collectin-K1 and the effects of mutations associated with 3MC syndrome” (BMC Biology, 2015)
